Source: patent publication US20110263454A1, “Methods of Identifying Functional Characteristics of Promoters, Transcription Modifying Proteins and Transcription Modulating Agents” (Salk Institute for Biological Studies, priority 2008, published 2011)

B1: RARg: Retinoic acid receptor γ (NR1B3), nuclear hormone receptor cDNA driver (protein, UniProt P13631 1-454, looked up)
Retinoic acid receptor gamma: MATNKERLFAAGALGPGSGYPGAGFPFAFPGALRGSPPFEMLSPSFRGLGQPDLPKEMASLSVETQSTSSEEMVPSSPSPPPPPRVYKPCFVCNDKSSGYHYGVSSCEGCKGFFRRSIQKNMVYTCHRDKNCIINKVTRNRCQYCRLQKCFEVGMSKEAVRNDRNKKKKEVKEEGSPDSYELSPQLEELITKVSKAHQETFPSLCQLGKYTTNSSADHRVQLDLGLWDKFSELATKCIIKIVEFAKRLPGFTGLSIADQITLLKAACLDILMLRICTRYTPEQDTMTFSDGLTLNRTQMHNAGFGPLTDLVFAFAGQLLPLEMDDTETGLLSAICLICGDRMDLEEPEKVDKLQEPLLEALRLYARRRRPSQPYMFPRMLMKITDLRGISTKGAERAITLKMEIPGPMPPLIREMLENPEMFEDDSSQPGPHPNASSEDEVPGGQGKGGLKSPA
B2: FXR: Farnesoid X Receptor (NR1H4), cDNA driver (protein, UniProt Q96RI1 1-486, looked up)
Bile acid receptor: MVMQFQGLENPIQISPHCSCTPSGFFMEMMSMKPAKGVLTEQVAGPLGQNLEVEPYSQYSNVQFPQVQPQISSSSYYSNLGFYPQQPEEWYSPGIYELRRMPAETLYQGETEVAEMPVTKKPRMGASAGRIKGDELCVVCGDRASGYHYNALTCEGCKGFFRRSITKNAVYKCKNGGNCVMDMYMRRKCQECRLRKCKEMGMLAECMYTGLLTEIQCKSKRLRKNVKQHADQTVNEDSEGRDLRQVTSTTKSCREKTELTPDQQTLLHFIMDSYNKQRMPQEITNKILKEEFSAEENFLILTEMATNHVQVLVEFTKKLPGFQTLDHEDQIALLKGSAVEAMFLRSAEIFNKKLPSGHSDLLEERIRNSGISDEYITPMFSFYKSIGELKMTQEEYALLTAIVILSPDRQYIKDREAVEKLQEPLLDVLQKLCKIHQPENPQHFACLLGRLTELRTFNHHHAEMLMSWRVNDHKFTPLLCEIWDVQ
B3: PXR: Pregnane X Receptor (NR1I2), cDNA driver (protein, UniProt O75469 1-434, looked up)
Nuclear receptor subfamily 1 …: MEVRPKESWNHADFVHCEDTESVPGKPSVNADEEVGGPQICRVCGDKATGYHFNVMTCEGCKGFFRRAMKRNARLRCPFRKGACEITRKTRRQCQACRLRKCLESGMKKEMIMSDEAVEERRALIKRKKSERTGTQPLGVQGLTEEQRMMIRELMDAQMKTFDTTFSHFKNFRLPGVLSSGCELPESLQAPSREEAAKWSQVRKDLCSLKVSLQLRGEDGSVWNYKPPADSGGKEIFSLLPHMADMSTYMFKGIISFAKVISYFRDLPIEDQISLLKGAAFELCQLRFNTVFNAETGTWECGRLSYCLEDTAGGFQQLLLEPMLKFHYMLKKLQLHEEEYVLMQAISLFSPDRPGVLQHRVVDQLQEQFAITLKSYIECNRPQPAHRFLFLKIMAMLTELRSINAQHTQRLLRIQDIHPFATPLMQELFGITGS
B4: RARb: Retinoic acid receptor β (NR1B2), nuclear hormone receptor cDNA driver (protein, UniProt P10826 1-455, looked up)
Retinoic acid receptor beta: MTTSGHACPVPAVNGHMTHYPATPYPLLFPPVIGGLSLPPLHGLHGHPPPSGCSTPSPATIETQSTSSEELVPSPPSPLPPPRVYKPCFVCQDKSSGYHYGVSACEGCKGFFRRSIQKNMIYTCHRDKNCVINKVTRNRCQYCRLQKCFEVGMSKESVRNDRNKKKKETSKQECTESYEMTAELDDLTEKIRKAHQETFPSLCQLGKYTTNSSADHRVRLDLGLWDKFSELATKCIIKIVEFAKRLPGFTGLTIADQITLLKAACLDILILRICTRYTPEQDTMTFSDGLTLNRTQMHNAGFGPLTDLVFTFANQLLPLEMDDTETGLLSAICLICGDRQDLEEPTKVDKLQEPLLEALKIYIRKRRPSKPHMFPKILMKITDLRSISAKGAERVITLKMEIPGSMPPLIQEMLENSEGHEPLTPSSSGNTAEHSPSISPSSVENSGVSQSPLVQ
B5: CAR: Constitutive Androstane Receptor (NR1I3), cDNA driver (protein, UniProt Q14994 1-352, looked up)
Nuclear receptor subfamily 1 …: MASREDELRNCVVCGDQATGYHFNALTCEGCKGFFRRTVSKSIGPTCPFAGSCEVSKTQRRHCPACRLQKCLDAGMRKDMILSAEALALRRAKQAQRRAQQTPVQLSKEQEELIRTLLGAHTRHMGTMFEQFVQFRPPAHLFIHHQPLPTLAPVLPLVTHFADINTFMVLQVIKFTKDLPVFRSLPIEDQISLLKGAAVEICHIVLNTTFCLQTQNFLCGPLRYTIEDGARVSPTVGFQVEFLELLFHFHGTLRKLQLQEPEYVLLAAMALFSPDRPGVTQRDEIDQLQEEMALTLQSYIKGQQRRPRDRFLYAKLLGLLAELRSINEAYGYQIQHIQGLSAMMPLLQEICS
B6: PPARd: Peroxisome proliferator activated receptor δ (NR1C2), cDNA driver (protein, UniProt Q03181 1-441, looked up)
Peroxisome …: MEQPQEEAPEVREEEEKEEVAEAEGAPELNGGPQHALPSSSYTDLSRSSSPPSLLDQLQMGCDGASCGSLNMECRVCGDKASGFHYGVHACEGCKGFFRRTIRMKLEYEKCERSCKIQKKNRNKCQYCRFQKCLALGMSHNAIRFGRMPEAEKRKLVAGLTANEGSQYNPQVADLKAFSKHIYNAYLKNFNMTKKKARSILTGKASHTAPFVIHDIETLWQAEKGLVWKQLVNGLPPYKEISVHVFYRCQCTTVETVRELTEFAKSIPSFSSLFLNDQVTLLKYGVHEAIFAMLASIVNKDGLLVANGSGFVTREFLRSLRKPFSDIIEPKFEFAVKFNALELDDSDLALFIAAIILCGDRPGLMNVPRVEAIQDTILRALEFHLQANHPDAQYLFPKLLQKMADLRQLVTEHAQMMQRIKKTETETSLHPLLQEIYKDMY

Legend:
hIFNg promoter = assay: NHR-promoter luciferase screen, hIFNg promoter; assay type: cell-based, human; details: for Luc. act., normalized to lacZ / Normalized Luc. act., normalized to control: IFNg promoter, HR component without or with ligand; for hIFNg promoter reporter activity: transcription factor +/- ligand, control = 1.00
How it was run: (§1)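 CV-1 cells were co-transfected with 50 ng NHR (homodimer or NHR/RXR heterodimer), 100 ng promoter-luciferase construct and 50 ng LacZ. Luciferase was normalized to LacZ and to a no-NHR/no-ligand control.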

mUCP2 promoter = assay: NHR-promoter luciferase screen, mUCP2 promoter; assay type: cell-based, mouse; details: for Luc. act., normalized to lacZ / Normalized Luc. act., normalized to control: mUCP2 promoter reporter, co-transfected HR, with or without its ligand; for Normalized Luc. act., normalized to control: relative to control; for luciferase activity normalized to lacZ activity and to a control, mUCP2: mUCP2 promoter-luciferase, CV-1 cells, NHR +/- ligand, control = 1.00
How it was run: as §1

SREBP1c promoter = assay: NHR-promoter luciferase screen, SREBP1c promoter; assay type: cell-based, mouse; details: for Luc. act., normalized to lacZ / Normalized Luc. act., normalized to control: SREBP1c promoter, HR component without or with ligand; for mSREBP1-c promoter reporter activity: transcription factor +/- ligand, control = 1.00
How it was run: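 CV-1 cells co-transfected with 50 ng NHR (homodimer or NHR/RXR heterodimer), 100 ng promoter-luciferase and 50 ng LacZ. Luciferase read at 48 h, normalised to LacZ and to a no-NHR/no-ligand control.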

mUCP1 promoter = assay: NHR-promoter luciferase screen, mUCP1 promoter; assay type: cell-based, mouse; details: for Luc. act., normalized to lacZ / Normalized Luc. act., normalized to control: mUCP1 promoter reporter, co-transfected HR, with or without its ligand; for Normalized Luc. act., normalized to control: relative to control; for luciferase activity normalized to lacZ activity and to a control, mUCP!: mUCP! promoter-luciferase, CV-1 cells, NHR +/- ligand, control = 1.00
How it was run: as §1

hPOMC promoter = assay: NHR-promoter luciferase screen, hPOMC promoter; assay type: cell-based, human; details: for Luc. act., normalized to lacZ / Normalized Luc. act., normalized to control: hPOMC promoter, HR/ligand component; for hPOMC promoter reporter activity: transcription factor +/- ligand, control = 1.00
How it was run: as §1

hIRF7 promoter = assay: NHR-promoter luciferase screen, hIRF7 promoter; assay type: cell-based, human; details: for Normalized Luc. act., normalized to control / Luc. act., normalized to lacZ: IRF7 promoter reporter; for Normalized Luc. act., normalized to control: HR without or with its ligand, relative to control; for Luc. act., normalized to lacZ: hormone receptor (HR) without or with its ligand; for hIRF7 promoter reporter activity: transcription factor +/- ligand, control = 1.00
How it was run: as §1

Row | Molecule | Luc. act., normalized to lacZ (hIFNg promoter) | Normalized Luc. act., normalized to control (hIFNg promoter) | hIFNg promoter reporter activity (hIFNg promoter) | Luc. act., normalized to lacZ (mUCP2 promoter) | Normalized Luc. act., normalized to control (mUCP2 promoter) | luciferase activity normalized to lacZ activity and to a control, mUCP2 (mUCP2 promoter) | Luc. act., normalized to lacZ (SREBP1c promoter) | Normalized Luc. act., normalized to control (SREBP1c promoter) | mSREBP1-c promoter reporter activity (SREBP1c promoter) | Luc. act., normalized to lacZ (mUCP1 promoter) | Normalized Luc. act., normalized to control (mUCP1 promoter) | luciferase activity normalized to lacZ activity and to a control, mUCP! (mUCP1 promoter) | Luc. act., normalized to lacZ (hPOMC promoter) | Normalized Luc. act., normalized to control (hPOMC promoter) | hPOMC promoter reporter activity (hPOMC promoter) | Normalized Luc. act., normalized to control (hIRF7 promoter) | Luc. act., normalized to lacZ (hIRF7 promoter) | hIRF7 promoter reporter activity (hIRF7 promoter)
1 | B1 | 22.8 | 1.4 | 1.43 | 242.5 | 2.2 | 2.21 | 1052.4 | 3.3 | 3.27 | 5.0 | 1.1 | 1.13 | 3.7 | 0.9 | 0.87 | 1.8 | 47.5 | 1.80
2 | B2 | 17.12 | 1.1 | 1.08 | 111.6 | 1.0 | 1.02 | 551.0 | 1.7 | 1.71 | 4.2 | 1.0 | 0.95 | 2.8 | 0.6 | 0.65 | 1.6 | 41.8 | 1.59
3 | B3 | 23.93 | 1.5 | 1.50 | 119.1 | 1.1 | 1.08 | 486.8 | 1.5 | 1.51 | 2.1 | 0.5 | 0.47 | 4.2 | 1.0 | 0.98 | 1.4 | 36.3 | 1.38
4 | B4 | 24.4 | 1.5 | 1.53 | 277.3 | 2.5 | 2.52 | 1056.4 | 3.3 | 3.28 | 4.4 | 1.0 | 1.00 | 4.3 | 1.0 | 1.00 | 1.8 | 47.2 | 1.79
5 | B5 | 19.0 | 1.2 | 1.19 | 151.6 | 1.4 | 1.38 | 312.9 | 1.0 | 0.97 | 3.3 | 0.7 | 0.74 | 4.3 | 1.0 | 1.00 | 1.4 | 37.3 | 1.42
6 | B6 | 19.72 | 1.2 | 1.24 | 172.7 | 1.6 | 1.57 | 658.7 | 2.0 | 2.04 | 3.5 | 0.8 | 0.79 | 3.8 | 0.9 | 0.89 | 1.3 | 33.6 | 1.27
